Here are results for two molecules from article PMC6698733.

For this data set, the target named is T1, Dhr1 isolated C-terminal domain (CTD) (Saccharomyces cerevisiae, UniProt Q04217 1176-1267).
T1 sequence: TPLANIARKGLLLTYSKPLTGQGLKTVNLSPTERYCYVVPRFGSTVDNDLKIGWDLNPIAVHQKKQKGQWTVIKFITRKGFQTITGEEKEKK
Put plainly: not stated.

Turning to UUUUUUUUUUUUUUU (ssRNA) [poly(U)15], the binding result is recorded as “no binding”.

Consider AAAAAAAAAAAAAAA (ssRNA) [poly(A)15], for which the binding result is listed as “no binding”.
